In publication PMC9613975:

Key:
[1] = molecular target: PacII S subunit (HsdS), full length, C-terminal 6His tag (assembly analysis) (Pseudomonas alcaligenes NEB585); test: SEC; S subunit alone on size-exclusion chromatography; monomer-dimer equilibrium
[2] = molecular target: PacII S subunit (HsdS), full length, C-terminal 6His tag (assembly analysis) (Pseudomonas alcaligenes NEB585); test: SEC; only two subunits co-expressed in E. coli (M1 with S, or M2 with S), purified by the same strategy as the wild-type PacII MTase; SEC

| stoichiometry N [1] | stoichiometry N [2] [M1 per S] | Substance |
| --- | --- | --- |
| 2 |  | PacII S subunit (HsdS), full length, C-terminal 6His tag (assembly analysis) (natural protein) |
|  | 1 | PacII M1 subunit (HsdM1), full length, construct without the 6His-SUMO tag (assembly analysis) (natural protein) |
